Laboratory results taken from patent publication US20210292396A1.

Assays:
Test in all cases: cell-based or functional assay
[1] = molecular target: Env of HIV isolate 0013095-2.11 (clade C) (HIV)
[2] = molecular target: Env of HIV isolate 001428-2.42 (clade C) (HIV)
[3] = molecular target: Env of HIV isolate 0330.v4.c3 (clade A) (HIV)
[4] = molecular target: Env of HIV isolate 25925-2.22 (clade C) (HIV)
[5] = molecular target: Env of HIV isolate 263-8 (clade AG) (HIV)
[6] = molecular target: Env of HIV isolate 286.36 (clade C) (HIV)
[7] = molecular target: Env of HIV isolate 6405.v4.c34 (clade D) (HIV)
[8] = molecular target: Env of HIV isolate 6631.v3.c10 (clade C) (HIV)
[9] = molecular target: Env of HIV isolate 89.6.DG (clade B) (HIV)
[10] = molecular target: Env of HIV isolate BJOX009000.02.4 (clade AE) (HIV)
[11] = molecular target: Env of HIV isolate BX08.16 (clade B) (HIV)
[12] = molecular target: Env of HIV isolate Bal.01 (clade B) (HIV)
[13] = molecular target: Env of HIV isolate CAAN.A2 (clade B) (HIV)
[14] = molecular target: Env of HIV isolate CNE15 (clade BC) (HIV)
[15] = molecular target: Env of HIV isolate CNE3 (clade AE) (HIV)
[16] = molecular target: Env of HIV isolate CNE30 (clade C in Table 7) (HIV)
[17] = molecular target: Env of HIV isolate Ce1176.A3 (clade C) (HIV)
[18] = molecular target: Env of HIV isolate DU422.01 (clade C) (HIV)
[19] = molecular target: Env of HIV isolate HXB2.DG (clade B) (HIV)
[20] = molecular target: Env of HIV isolate KNH1209.18 (clade A) (HIV)
[21] = molecular target: Env of HIV isolate P0402.c2.11 (clade G) (HIV)
[22] = molecular target: Env of HIV isolate R2184.c4 (clade AE) (HIV)
[23] = molecular target: Env of HIV isolate RW020.2 (clade A) (HIV)
[24] = molecular target: Env of HIV isolate T253-11 (clade AG) (HIV)
[25] = molecular target: Env of HIV isolate T278-50 (clade AG) (HIV)
[26] = molecular target: Env of HIV isolate T33-7 (clade AG) (HIV)
[27] = molecular target: Env of HIV isolate TH976.17 (clade AE) (HIV)
[28] = molecular target: Env of HIV isolate TV1.29 (clade C) (HIV)
[29] = molecular target: Env of HIV isolate UG037.8 (clade A) (HIV)
[30] = molecular target: Env of HIV isolate X1193.c1 (clade G) (HIV)
[31] = molecular target: Env of HIV isolate ZM106.9 (clade C) (HIV)
[32] = molecular target: Env of HIV isolate ZM109.4 (clade C) (HIV)
[33] = molecular target: Env of HIV isolate ZM176.66 (clade C) (HIV)
[34] = molecular target: Env of HIV isolate ZM233.6 (clade C) (HIV)
Envelope of SVA.MLV = molecular target: Envelope of SVA.MLV
[35] = molecular target: Envelope protein of SIVmac251.30.SG3 (clade NA)
[36] = molecular target: Envelope protein of SVA.MLV (clade NA)
[37] = molecular target: HIV Env of isolate 0921.v2.c14 (HIV)
[38] = molecular target: HIV Env of isolate 25711-2.4 (HIV)
[39] = molecular target: HIV Env of isolate 288.38 (HIV)
[40] = molecular target: HIV Env of isolate 6471.v1.c16 (HIV)
[41] = molecular target: HIV Env of isolate BR025.9 (HIV)
[42] = molecular target: HIV Env of isolate CAP210.E8 (HIV)
[43] = molecular target: HIV Env of isolate CNE21 (HIV)
[44] = molecular target: HIV Env of isolate Ce1176.A3 (HIV)
[45] = molecular target: HIV Env of isolate P1981.C5.3 (HIV)
[46] = molecular target: HIV Env of isolate X2131.C1.B5 (HIV)
[47] = molecular target: HIV Env of isolate ZA012.29 (HIV)
[48] = molecular target: HIV Env of isolate ZM176.66 (HIV)
[49] = molecular target: HIV Env of isolate ZM249.1 (HIV)

B1: ePGT121.18 (ePGT121.18.H1 VH and ePGT121.17.L1 VL) (antibody, V domains shown)
VH: QMQLQESGPGLVKPGETLSLTCSVSGASISSSYWSWLRETPGKGLEWIGYTHHSGDTNYAPSLKSRVHLGLHPSKNQVSLSLTSVTAADTAVYYCARTLHGRRIYGVVAFNEYYTYFYWPTWGKGTQVTVSS
VL: SDISVAPGETVRITCGGESIGSRAVQWYQHRPGQAPRLIIYNNQDRPPGIPERFSGSPDIDFGTTATLTISNVEAGDEATYYCHIWDSRRPTNWELGPGTTLTVL
Work on B1 yielded an IC50, pseudovirus neutralization [1] of 537 ng/mL, an IC50, pseudovirus neutralization [2] of 1 ng/mL and an IC50, pseudovirus neutralization [3] of 3 ng/mL. The IC50, pseudovirus neutralization [4] was 3 ng/mL, the IC50, pseudovirus neutralization [5] was 4 ng/mL and the IC50, pseudovirus neutralization [6] was 1 ng/mL. It also gave an IC50, pseudovirus neutralization [7] of 1 ng/mL, an IC50, pseudovirus neutralization [8] of 10 ng/mL and an IC50, pseudovirus neutralization [9] of 1 ng/mL. The IC50, pseudovirus neutralization [10] was 42 ng/mL, the IC50, pseudovirus neutralization [11] was 3 ng/mL and the IC50, pseudovirus neutralization [12] was 2 ng/mL. For the same binder, the IC50, pseudovirus neutralization [13] was 2 ng/mL, the IC50, pseudovirus neutralization [14] was 5690 ng/mL and the IC50, pseudovirus neutralization [15] was over 50000 ng/mL. The IC50, pseudovirus neutralization [16] was 5 ng/mL, the IC50, pseudovirus neutralization [17] was 3 ng/mL and the IC50, pseudovirus neutralization [18] was 6 ng/mL. It also gave an IC50, pseudovirus neutralization [19] of 3 ng/mL, an IC50, pseudovirus neutralization [20] of 1 ng/mL and an IC50, pseudovirus neutralization [21] of 2 ng/mL. The IC50, pseudovirus neutralization [22] was over 50000 ng/mL, the IC50, pseudovirus neutralization [23] was 2 ng/mL and the IC50, pseudovirus neutralization [24] was 4 ng/mL. The IC50, pseudovirus neutralization [25] was 1170 ng/mL, the IC50, pseudovirus neutralization [26] was over 50000 ng/mL and the IC50, pseudovirus neutralization [27] was over 50000 ng/mL. For the same binder, the IC50, pseudovirus neutralization [28] was 2 ng/mL, the IC50, pseudovirus neutralization [29] was 2 ng/mL and the IC50, pseudovirus neutralization [30] was 2 ng/mL. It also gave an IC50, pseudovirus neutralization [31] of 1 ng/mL, an IC50, pseudovirus neutralization [32] of 7260 ng/mL and an IC50, pseudovirus neutralization [33] of 17 ng/mL. The IC50, pseudovirus neutralization [34] was 6 ng/mL, the IC80, pseudovirus neutralization (M1) (Envelope of SVA.MLV) was over 50000 ng/mL and the IC80, pseudovirus neutralization (M2) (Envelope of SVA.MLV) was over 50000 ng/mL. It also gave an IC50, pseudovirus neutralization [35] of over 50000 ng/mL, an IC50, pseudovirus neutralization [36] of over 50000 ng/mL and an IC80, pseudovirus neutralization (M1) [37] of 1030 ng/mL. For the same binder, the IC80, pseudovirus neutralization (M2) [37] was 1490 ng/mL, the IC80, pseudovirus neutralization (M1) [38] was 5 ng/mL and the IC80, pseudovirus neutralization (M2) [38] was 6 ng/mL. The IC80, pseudovirus neutralization (M1) [39] was 2 ng/mL, the IC80, pseudovirus neutralization (M2) [39] was 2 ng/mL and the IC80, pseudovirus neutralization (M1) [40] was 2940 ng/mL. It also gave an IC80, pseudovirus neutralization (M2) [40] of 2620 ng/mL, an IC80, pseudovirus neutralization (M1) [41] of 4 ng/mL and an IC80, pseudovirus neutralization (M2) [41] of 4 ng/mL. For the same binder, the IC80, pseudovirus neutralization (M1) [42] was 78 ng/mL, the IC80, pseudovirus neutralization (M2) [42] was 106 ng/mL and the IC80, pseudovirus neutralization (M1) [43] was 2 ng/mL. It also gave an IC80, pseudovirus neutralization (M2) [43] of 2 ng/mL, an IC80, pseudovirus neutralization (M1) [44] of 6 ng/mL and an IC80, pseudovirus neutralization (M2) [44] of 6 ng/mL. For the same binder, the IC80, pseudovirus neutralization (M1) [45] was 3 ng/mL, the IC80, pseudovirus neutralization (M2) [45] was 3 ng/mL and the IC80, pseudovirus neutralization (M1) [46] was 2 ng/mL. The IC80, pseudovirus neutralization (M2) [46] was 3 ng/mL, the IC80, pseudovirus neutralization (M1) [47] was 6 ng/mL and the IC80, pseudovirus neutralization (M2) [47] was 7 ng/mL. The IC80, pseudovirus neutralization (M1) [48] was 91 ng/mL, the IC80, pseudovirus neutralization (M2) [48] was 106 ng/mL and the IC80, pseudovirus neutralization (M1) [49] was 992 ng/mL. It also gave an IC80, pseudovirus neutralization (M2) [49] of 874 ng/mL.

B2: ePGT121.18.17 (ePGT121.18.H17 VH and ePGT121.17.L1 VL) (antibody, V domains shown)
VH: QMQLQESGPGLVKPGETLSLTCSVSGASISSSYWSWLRETPGKGLEWIGYTHHSGDTNYAPSLKSRVTIGLDPSKNQVSLSLTSVTAADTAVYYCARTLHGRRIYGVVAFNEYYTYFYWPTWGKGTQVTVSS
VL: SDISVAPGETVRITCGGESIGSRAVQWYQHRPGQAPRLIIYNNQDRPPGIPERFSGSPDIDFGTTATLTISNVEAGDEATYYCHIWDSRRPTNWELGPGTTLTVL
Work on B2 yielded an IC50, pseudovirus neutralization [1] of 1680 ng/mL, an IC50, pseudovirus neutralization [2] of 4 ng/mL and an IC50, pseudovirus neutralization [3] of 12 ng/mL. The IC50, pseudovirus neutralization [4] was 11 ng/mL, the IC50, pseudovirus neutralization [5] was 20 ng/mL and the IC50, pseudovirus neutralization [6] was 3 ng/mL. It also gave an IC50, pseudovirus neutralization [7] of 4 ng/mL, an IC50, pseudovirus neutralization [8] of 63 ng/mL and an IC50, pseudovirus neutralization [9] of 4 ng/mL. It also gave an IC50, pseudovirus neutralization [10] of 156 ng/mL, an IC50, pseudovirus neutralization [11] of 4 ng/mL and an IC50, pseudovirus neutralization [12] of 3 ng/mL. The IC50, pseudovirus neutralization [13] was 4 ng/mL, the IC50, pseudovirus neutralization [14] was 14000 ng/mL and the IC50, pseudovirus neutralization [15] was over 50000 ng/mL. For the same binder, the IC50, pseudovirus neutralization [16] was 18 ng/mL, the IC50, pseudovirus neutralization [17] was 8 ng/mL and the IC50, pseudovirus neutralization [18] was 13 ng/mL. For the same binder, the IC50, pseudovirus neutralization [19] was 16 ng/mL, the IC50, pseudovirus neutralization [20] was 3 ng/mL and the IC50, pseudovirus neutralization [21] was 4 ng/mL. The IC50, pseudovirus neutralization [22] was over 50000 ng/mL, the IC50, pseudovirus neutralization [23] was 3 ng/mL and the IC50, pseudovirus neutralization [24] was 25 ng/mL. It also gave an IC50, pseudovirus neutralization [25] of 1200 ng/mL, an IC50, pseudovirus neutralization [26] of over 50000 ng/mL and an IC50, pseudovirus neutralization [27] of over 50000 ng/mL. The IC50, pseudovirus neutralization [28] was 11 ng/mL, the IC50, pseudovirus neutralization [29] was 9 ng/mL and the IC50, pseudovirus neutralization [30] was 5 ng/mL. It also gave an IC50, pseudovirus neutralization [31] of 4 ng/mL, an IC50, pseudovirus neutralization [32] of 8440 ng/mL and an IC50, pseudovirus neutralization [33] of 122 ng/mL. The IC50, pseudovirus neutralization [34] was 17 ng/mL, the IC80, pseudovirus neutralization (Envelope of SVA.MLV) was over 50000 ng/mL and the IC50, pseudovirus neutralization [35] was over 50000 ng/mL. The IC50, pseudovirus neutralization [36] was over 50000 ng/mL, the IC80, pseudovirus neutralization [37] was 3480 ng/mL and the IC80, pseudovirus neutralization [38] was 17 ng/mL. The IC80, pseudovirus neutralization [39] was 3 ng/mL, the IC80, pseudovirus neutralization [40] was 10000 ng/mL and the IC80, pseudovirus neutralization [41] was 8 ng/mL. The IC80, pseudovirus neutralization [42] was 645 ng/mL, the IC80, pseudovirus neutralization [43] was 5 ng/mL and the IC80, pseudovirus neutralization [44] was 17 ng/mL. It also gave an IC80, pseudovirus neutralization [45] of 5 ng/mL, an IC80, pseudovirus neutralization [46] of 7 ng/mL and an IC80, pseudovirus neutralization [47] of 14 ng/mL. The IC80, pseudovirus neutralization [48] was 454 ng/mL and the IC80, pseudovirus neutralization [49] was 4250 ng/mL.

B3: ePGT121.15.H2.L1 (antibody, V domains shown)
VH: QMQLQESGPGLVKPGETLSLTCSVSGASISSSYWSWLRETPGKGLEWIGYTHHSGDTNYAPSLKSRVHLGLHPSKNQVSLSLTSVTAADTAVYYCARTLHGRRIYGVVAFNEWFTYFYWEVWGKGTQVTVSS
VL: SDISVAPGETVRISCGGESIGSRAVQWYQHRAGQAPKLIIYNNQDRPPGIPERFSGSPDIDFGTTATLTITNVEAGDEATYYCHIWDSRRPTNWVFGGGTTLTVL
In the case of B3, the neutralization (Table 6 value) [43] is reported as 0.000874.
